Consider five substances from the supplement of paper PMC5998384.

Data set [1] deals with HeLa Kyoto. In words: solubility in G1/S (NP-40 vs SDS abundance) (log2 ratio); higher = more soluble. The following applies: cell cycle stage: G1/S.
Data set [2] deals with HeLa Kyoto. In words: melting temperature (median over replicates), in situ; higher = more thermally stable.
The subject of data set [3] is HeLa Kyoto. Description: solubility change mitosis vs G1/S (difference of NP-40 vs SDS log2 ratios) (log2 ratio difference); higher = more soluble in mitosis.
For data set [4], the system named is HeLa Kyoto. Description: thermal stability score vs G1/S (z-score of summed log2 fold changes over temperatures); higher = more thermally stable than in G1/S.
Where [5] appears, read: cell cycle stage: early G1 (4.5 h after nocodazole release).
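For melting temperature (median over replicates), in situ in this document: HeLa Kyoto cells synchronized by double thymidine or nocodazole block, proteins quantified by TMT10plex mass spectrometry, three independent biological replicates.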
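For solubility change mitosis vs G1/S (difference of NP-40 vs SDS log2 ratios) in this document: synchronized HeLa Kyoto cells (double thymidine block for G1/S, nocodazole release for mitosis), protein amounts in NP-40 versus SDS lysates quantified by mass spectrometry, three biological replicates.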
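For solubility in G1/S (NP-40 vs SDS abundance) in this document: HeLa Kyoto cells arrested at G1/S by double thymidine block, proteins quantified by TMT10plex mass spectrometry in mild NP-40 versus SDS extracts, three biological replicates.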
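For thermal stability score vs G1/S (z-score of summed log2 fold changes over temperatures) in this document: synchronized HeLa Kyoto cells, proteins quantified by TMT10plex mass spectrometry, three biological replicates, mitosis taken 0.5 h after nocodazole release, G1/S directly after double thymidine block.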

In the case of “MTTEKSLVTEAENSQHQQKEEGEEAINSGQQEPQQEESCQTAAEGDNWCEQKLKASNGDTPTHEDLTKNKERTSESRGLSRLFSSFLKRPKSQVSEEEGKEVESDKEKGEGGQKEIEFGTSLDEEIILKAPIAAPEPELKTDPSLDLHSLSSAETQPAQEELREDPDFEIKEGEGLEECSKIEVKEESPQSKAETELKASQKPIRKHRNMHCKVSLLDDTVYECVVEKHAKGQDLLKRVCEHLNLLEEDYFGLAIWDNATSKTWLDSAKEIKKQVRGVPWNFTFNVKFYPPDPAQLTEDITRYYLCLQLRQDIVAGRLPCSFATLALLGSYTIQSELGDYDPELHGVDYVSDFKLAPNQTKELEEKVMELHKSYRSMTPAQADLEFLENAKKLSMYGVDLHKAKDLEGVDIILGVCSSGLLVYKDKLRINRFPWPKVLKISYKRSSFFIKIRPGEQEQYESTIGFKLPSYRAAKKLWKVCVEHHTFFRLTSTDTIPKSKFLALGSKFRYSGRTQAQTRQASALIDRPAPHFERTASKRASRSLDGAAAVDSADRSPRPTSAPAITQGQVAEGGVLDASAKKTVVPKAQKETVKAEVKKEDEPPEQAEPEPTEAWKVEKTHIEVTVPTSNGDQTQKLAEKTEDLIRMRKKKRERLDGENIYIRHSNLMLEDLDKSQEEIKKHHASISELKKNFMESVPEPRPSEWDKRLSTHSPFRTLNINGQIPTGEGPPLVKTQTVTISDNANAVKSEIPTKDVPIVHTETKTITYEAAQTDDNSGDLDPGVLLTAQTITSETPSSTTTTQITKTVKGGISETRIEKRIVITGDADIDHDQVLVQAIKEAKEQHPDMSVTKVVVHQETEIADE [EPB41]”, in the data set on HeLa Kyoto [1], the “solubility in G1/S (log2)” value was -0.0892. The melting temperature in the data set with HeLa Kyoto [2] (cell cycle stage: G1/S) and in the data set on HeLa Kyoto [2] (cell cycle stage: mitosis) was 51.6 °C in each case. The “solubility change mitosis (log2)” value in the data set on HeLa Kyoto [3] was -0.0541. In addition, the thermal stability score was -0.449 with HeLa Kyoto [4] (setting [5]) and -0.552 in the data set on HeLa Kyoto [4] (cell cycle stage: mitosis).
For “MTTSHQPQDRYKAVWLIFFMLGLGTLLPWNFFMTATQYFTNRLDMSQNVSLVTAELSKDAQASAAPAAPLPERNSLSAIFNNVMTLCAMLPLLLFTYLNSFLHQRIPQSVRILGSLVAILLVFLITAILVKVQLDALPFFVITMIKIVLINSFGAILQGSLFGLAGLLPASYTAPIMSGQGLAGFFASVAMICAIASGSELSESAFGYFITACAVIILTIICYLGLPRLEFYRYYQQLKLEGPGEQETKLDLISKGEEPRAGKEESGVSVSNSQPTNESHSIKAILKNISVLAFSVCFIFTITIGMFPAVTVEVKSSIAGSSTWERYFIPVSCFLTFNIFDWLGRSLTAVFMWPGKDSRWLPSLVLARLVFVPLLLLCNIKPRRYLTVVFEHDAWFIFFMAAFAFSNGYLASLCMCFGPKKVKPAEAETAGAIMAFFLCLGLALGAVFSFLFRAIV [SLC29A1]”, the “solubility in G1/S (log2)” value with HeLa Kyoto [1] was -0.149. Further, the melting temperature was found to be 58.4 °C with HeLa Kyoto [2] (cell cycle stage: G1/S) and 61.1 °C with HeLa Kyoto [2] (cell cycle stage: mitosis). The “solubility change mitosis (log2)” value in the data set on HeLa Kyoto [3] is -0.151. The thermal stability score stood at 1.53 in the data set with HeLa Kyoto [4] (setting [5]) and 0.495 in the data set on HeLa Kyoto [4] (cell cycle stage: mitosis).
Turning to “MTTYSDKGAKPERGRFLHFHSVTFWVGNAKQATSFYCSKMGFEPLAYRGLETGSREVVSHVIKQGKIVFVLSSALNPWNKEMGDHLVKHGDGVKDIAFEVEDCDYIVQKARERGAKIMREPWVEQDKFGKVKFAVLQTYGDTTHTLVEKMNYIGQFLPGYEAPAFMDPLLPKLPKCSLEMIDHIVGNQPDQEMVSASEWYLKNLQFHRFWSVDDTQVHTEYSSLRSIVVANYEESIKMPINEPAPGKKKSQIQEYVDYNGGAGVQHIALKTEDIITAIRHLRERGLEFLSVPSTYYKQLREKLKTAKIKVKENIDALEELKILVDYDEKGYLLQIFTKPVQDRPTLFLEVIQRHNHQGFGAGNFNSLFKAFEEEQNLRGNLTNMETNGVVPGM [HPD]”, the “solubility in G1/S (log2)” value with HeLa Kyoto [1] is 0.143. For the same substance, the figures for the melting temperature in the data set on HeLa Kyoto [2] (cell cycle stage: G1/S) and in the data set with HeLa Kyoto [2] (cell cycle stage: mitosis) were 53.6 °C and 53.5 °C, respectively. Moreover, the “solubility change mitosis (log2)” value in the data set with HeLa Kyoto [3] is -0.0296. Also, the thermal stability score with HeLa Kyoto [4] (setting [5]) is 1.14; in the data set on HeLa Kyoto [4] (cell cycle stage: mitosis) it was 1.46.
For “MTVARPSVPAALPLLGELPRLLLLVLLCLPAVWGDCGLPPDVPNAQPALEGRTSFPEDTVITYKCEESFVKIPGEKDSVICLKGSQWSDIEEFCNRSCEVPTRLNSASLKQPYITQNYFPVGTVVEYECRPGYRREPSLSPKLTCLQNLKWSTAVEFCKKKSCPNPGEIRNGQIDVPGGILFGATISFSCNTGYKLFGSTSSFCLISGSSVQWSDPLPECREIYCPAPPQIDNGIIQGERDHYGYRQSVTYACNKGFTMIGEHSIYCTVNNDEGEWSGPPPECRGKSLTSKVPPTVQKPTTVNVPTTEVSPTSQKTTTKTTTPNAQATRSTPVSRTTKHFHETTPNKGSGTTSGTTRLLSGHTCFTLTGLLGTLVTMGLLT [CD55]”, the “solubility in G1/S (log2)” value with HeLa Kyoto [1] is -0.786. Besides, the melting temperature in the data set on HeLa Kyoto [2] (cell cycle stage: G1/S) is 63.5 °C; in the data set on HeLa Kyoto [2] (cell cycle stage: mitosis) it was 63.9 °C. Moreover, the “solubility change mitosis (log2)” value with HeLa Kyoto [3] was -0.0285. For the same substance, the thermal stability score in the data set with HeLa Kyoto [4] (setting [5]) was -1.88; in the data set with HeLa Kyoto [4] (cell cycle stage: mitosis), -1.77.
Take MUC16: the “solubility in G1/S (log2)” value in the data set on HeLa Kyoto [1] is -0.172. For the same substance, the melting temperature with HeLa Kyoto [2] (cell cycle stage: G1/S) and with HeLa Kyoto [2] (cell cycle stage: mitosis) was 53.5 °C throughout. In addition, the “solubility change mitosis (log2)” value in the data set on HeLa Kyoto [3] was -0.177. In addition, the thermal stability score in the data set with HeLa Kyoto [4] (setting [5]) was -2.6; in the data set on HeLa Kyoto [4] (cell cycle stage: mitosis) it was -5.24.
